# Data as given in FireProtDB (doi:10.1073/pnas.0911904107).
# B1: Lipid A palmitoyltransferase PagP, P37001 (parent)
# chain: MNVSKYVAIFSFVFIQLISVGKVFANADEWMTTFRENIAQTWQQPEHYDLYIPAITWHARFAYDKEKTDRYNERPWGGGFGLSRWDEKGNWHGLYAMAFKDSWNKWEPIAGYGWESTWRPLADENFHLGLGFTAGVTARDNWNYIPLPVLLPLASVGYGPVTFQMTYIPGTYNNGNVYFAWMRFQF
# Variants of: B1
# Conditions: Escherichia coli (strain K12), pH 8, 25 °C, Urea, CD, structure 1THQ, whole UniProt chain shown
# [1] = Sodium phosphate 50 mM, reversible: Yes
# [2] = sodium phosphate buffer, transition: 2, reversible: yes
Variant,ddG of mutation (higher = less stable) [1] [kcal/mol],denaturant midpoint (higher = more stable) [1] [M],unfolding free energy [1] [kcal/mol],ddG of mutation (higher = less stable) [2] [kcal/mol],denaturant midpoint (higher = more stable) [2] [M],unfolding free energy [2] [kcal/mol]
MNVSKYVAIFSFVFIQLISVGKVFANADEWMTTFRENIAQTWQQPEHYDLYIPAITWHARFAYDKEKTDRYNERPWGGGFGLSRWDEKGNWHGLYAAAFKDSWNKWEPIAGYGWESTWRPLADENFHLGLGFTAGVTARDNWNYIPLPVLLPLASVGYGPVTFQMTYIPGTYNNGNVYFAWMRFQF [M97A],0.34,8.56,14,5.82,8.56,8.56
MNVSKYVAIFSFVFIQLISVGKVFANADEWMTTFRENIAQTWQQPEHADLYIPAITWHARFAYDKEKTDRYNERPWGGGFGLSRWDEKGNWHGLYAMAFKDSWNKWEPIAGYGWESTWRPLADENFHLGLGFTAGVTARDNWNYIPLPVLLPLASVGYGPVTFQMTYIPGTYNNGNVYFAWMRFQF [Y48A],0.91,8.22,13.5,6.16,8.22,8.22
MNVSKYVAIFSFVFIQLISVGKVFANADEWMTTFRENIAQTWQQPEHYDLYIPAITWHARFAYDKEKTDRYNERPAGGGFGLSRWDEKGNWHGLYAMAFKDSWNKWEPIAGYGWESTWRPLADENFHLGLGFTAGVTARDNWNYIPLPVLLPLASVGYGPVTFQMTYIPGTYNNGNVYFAWMRFQF [W76A],0.45,8.5,13.9,5.88,8.5,8.5
MNVSKYVAIFSFVFIQLISVGKVFANADEWMTTFRENIAQTWQQPEHYDLYIPAITWHARFAYDKEKTDRYNERPWGGGFGLSRWDEKGNWHGLYAMAFKDSWNKWEPIAGFGWESTWRPLADENFHLGLGFTAGVTARDNWNYIPLPVLLPLASVGYGPVTFQMTYIPGTYNNGNVYFAWMRFQF [Y112F],1.37,7.93,13,6.45,7.93,7.93
MNVSKYVAIFSFVFIQLISVGKVFANADEWMTTFRENIAQTWQQPEHYNLYIPAITWHARFAYDKEKTDRYNERPWGGGFGLSRWDEKGNWHGLYAMAFKDSWNKWEPIAGYGWESTWRPLADENFHLGLGFTAGVTARDNWNYIPLPVLLPLASVGYGPVTFQMTYIPGTYNNGNVYFAWMRFQF [D49N],0.6,8.4,13.8,5.98,8.4,8.4
MNVSKYVAIFSFVFIQLISVGKVFANADEWMTTFRENIAQTWQQPEHYDLYIPAITWHARFAYDKEKTDRYNERPWGGGFGLSRWDEKGNWHGLYAMAFKDSWNKWEPIGGYGWESTWRPLADENFHLGLGFTAGVTARDNWNYIPLPVLLPLASVGYGPVTFQMTYIPGTYNNGNVYFAWMRFQF [A110G],0.87,8.24,13.5,–,–,–
MNVSKYVAIFSFVFIQLISVGKVFANADEWMTTFRENIAQTWQQPEHYDLYIPAITWHARFAYDKEKTDRYNERPWGGGAGLSRWDEKGNWHGLYAMAFKDSWNKWEPIAGYGWESTWRPLADENFHLGLGFTAGVTARDNWNYIPLPVLLPLASVGYGPVTFQMTYIPGTYNNGNVYFAWMRFQF [F80A],1.05,8.13,13.3,6.25,8.13,8.13
MNVSKYVAIFSFVFIQLISVGKVFANADEWMTTFRENIAQTWQQPEHYDLYIPAITWHARFAYDKEKTDRYNERPWGGGFGLARWDEKGNWHGLYAMAFKDSWNKWEPIAGYGWESTWRPLADENFHLGLGFTAGVTARDNWNYIPLPVLLPLASVGYGPVTFQMTYIPGTYNNGNVYFAWMRFQF [S83A],1.26,8.01,13.1,6.37,8.01,8.01
